Measured values reported in paper PMC10899662, “TopBP1 utilises a bipartite GINS binding mode to support genome replication” (Nature Communications, 2024).
Residues, ends and D or L forms follow the SMILES beside them. No end group written: not given here. *: point of attachment. 5FAM = O=C1OC2(c3ccc(O)cc3Oc3cc(O)ccc32)c2ccc(C(=O)*)cc21; Flu = fluorescein

Key:
[1] = biological target: GINS (6xHis-3xFlag-Sld5, Psf1, Psf2, Psf3) for pulldown experiments (UniProt Q9BRT9)
GINS tetramer = biological target: T1, GINS tetramer (Homo sapiens, UniProt Q14691+Q9BRT9+Q9BRX5+Q9Y248); assay: Fluorescence polarisation of fluorescein-labelled GINI-core peptides with GINS; assay type: binding; settings: room temperature
T1 construct: made in house; host or cells: SF9 insect cells, single baculovirus made with pBig1a
From the text: As the predicted interface between the TopBP1-GINI region and GINS[32] was not evident in our cryo-EM map we used additional interaction experiments to validate a role for this motif in GINS binding. The GINI region had been loosely defined as sitting between TopBP1-BRCT3 and BRCT4 (Fig. 1a(i)). […] We mutated this core, and other regions of conservation, to generate the mutants TopBP1-Gcc (GINI centre core), Gcore (GINI core) and RI-III (regions I-III) (Fig. 3a, Supplementary Fig. 7). […] To test if this helix constituted a GINS-interaction surface, we used fluorescence polarisation (FP). A fluorescently labelled GINI-core peptide (Ala478-Gly497) bound the GINS tetramer with a dissociation constant of Kd of ~8 µM (Fig. 3d). […] We therefore concluded that the GINI region is a GINS interaction site in its own right, but with moderate binding affinity.
Fig. 3 The conserved core of the TopBP1-GINI domain is required for a stable interaction with GINS. a Domain model and T-COFFEE alignment (one-letter aa code) of TopBP1 proteins from humans (Q92547) Xenopus laevis (Q7ZZY3), Bos taurus (A0A3Q1LWE4) and Rattus norvegicus (A0A8I6GFZ6). […] Source data are provided as a Source data file. d Fluorescence polarisation measurements including dissociation constants (kD) calculations using recombinant GINS tetramer and fluorescently labelled TopBP1-GINI-core peptides (WT or Gpp (a)). […]

[2] = biological target: T2, GINS (HIS-(3C)-Sld5, Psf1, Psf2, Psf3) for structural and fluorescence polarisation studies (UniProt Q9BRT9 1-223; Q14691 1-196; Q9Y248 1-185; Q9BRX5 1-216); assay: fluorescence polarisation; 100 nM fluorescein-labelled peptide, increasing concentrations of GINS; 25 mM HEPES pH 7.5, 150 mM NaCl, 1 mM EDTA, 0.25 mM TCEP, 0.02% Tween 20; room temperature; settings: both partners purified
T2 construct: Sld5 subunit of GINS; Psf1 subunit of GINS, with its B domain; Psf2 subunit of GINS; Psf3 subunit of GINS; A 3C site follows the His tag on Sld5; no cleavage is described; also called GINS tetramer; GINS complex; source: Sf9 insect cells, single baculovirus (pBig1a), purified (TALON, Superdex200); copies: + + +

GINS complex = assay: Size exclusion chromatography co-elution with GINS; assay type: binding; settings: Superdex200; 20 µM of each component; 10 mM HEPES pH 7.5, 150 mM NaCl, 0.5 mM TCEP
Protocol: Recombinant TopBP1 and GINS proteins were mixed in an equimolar ratio to give a final concentration of 20 µM of each component and incubated on ice for at least 30 min prior to application to a Superdex200increase 10 300 column (GE Healthcare, Little Chalfont, UK) equilibrated in 10 mM HEPES pH 7.5, 150 mM NaCl, 0.5 mM TCEP.

GINS = assay: Pulldown of recombinant TopBP1-BRCT0-5 by immobilised GINS, 150 mM NaCl; assay type: binding; settings: summary of recombinant protein interaction tests (yes/no)
From the text: Fig. 1 GINS and TopBP1 interact. a (i) Domain model of human (hs) TopBP1, its conservation with BRCT1/2 and 3/4 domains (grey boxes) of budding yeast Dpb11 (scDpb11). Arrows point to binding domains for interacting proteins. (ii) Overview of TopBP1 wild type (WT) and BRCT deletion (Δ) and point mutants. GINS binding capabilities are labelled in red and green. Numbers, amino acid position; capital letters indicate amino acid substitutions. Amino acid substitutions of point mutants in BRCT4 (B4mut) and 5 (B5mut) are coloured orange. b Elution profiles of size exclusion chromatography (Superdex200) of individual recombinant TopBP1-BRCT0-5 protein (grey) and GINS tetramers (green), or of both upon incubation (blue). c Recombinant GINS immobilised on Flag-beads and control beads (Flag peptide-coupled beads) were used to pull down recombinant TopBP1-0-5-WT or TopBP1-ΔBRCT4/5 (compare a(ii)). SDS gels were silver stained. kDa specifies molecular weight marker bands. The experiment was done more than three times with similar results. Source data are provided as a Source data file. TEXT PRINTED IN THE PICTURE: (a) BRCT0-5-WT: GINS binding? (rec. proteins): yes | (a) ΔBRCT4/5: GINS binding? (rec. proteins): no | (a) ΔBRCT3: GINS binding? (rec. proteins): yes | (a) ΔBRCT0/1/2: GINS binding? (rec. proteins): yes | (a) B5mut: GINS binding? (rec. proteins): yes | (a) B4mut: GINS binding? (rec. proteins): no
Fig. 2 Protein structure of the GINS-TopBP1-BRCT4/5 complex. a Structural model of the GINS-TopBP1-BRCT4/5 complex. Crystal structures of the GINS subunits (PDB:2E9X) (shades of green, yellow), and the central BRCT4/5 domain of TopBP1 (PDB:3UEN) (grey) were docked into the cryo-EM volume shown as transparent volume. b Zoom-in of the BRCT4-Psf1 interface. The residues in stick representation appear crucial for the interface. Mutations to break the interaction are coloured pink (Psf1-I97R) and purple (TopBP1-B4mut; compare Fig. 1a(ii)). c Pulldown of the indicated recombinant TopBP1-BRCT0-5-strep versions (see Fig. 1a(ii)) by Flag-beads-immobilised recombinant GINS or Flag peptide-coupled control beads. Analysis was done by immunoblotting. The experiment was done more than three times with similar results. d Pulldown of the indicated recombinant TopBP1-BRCT0-5-WT-strep using immobilised GINS-WT or GINS carrying a Ile97 to arginine mutation in Psf1.TopBP1-Gcc/B4mut-strep (Figs. 1a(ii) and 3a) was used as a non-GINS binding control. The experiment was done twice with similar results. Source data are provided as a Source data file.
Fig. 3 The conserved core of the TopBP1-GINI domain is required for a stable interaction with GINS. a Domain model and T-COFFEE alignment (one-letter aa code) of TopBP1 proteins from humans (Q92547) Xenopus laevis (Q7ZZY3), Bos taurus (A0A3Q1LWE4) and Rattus norvegicus (A0A8I6GFZ6). Coloured boxes indicate GINI region mutants in sub-regions I (blue), II (green) and III (orange), and in the GINI core helix (red) (details in Supplementary Fig. 7). Amino acid substitutions, names of GINI core region mutations and corresponding GINS binding capabilities are shown. ., : and * indicate low conservation, high conservation and identical amino acids, respectively. b/c Pulldown of recombinant TopBP1-BRCT0-5-strep-WT or the indicated GINI region mutants (a) by bead-immobilised GINS or Flag peptide-coupled control beads. Analysis was done by immunoblotting. The experiments were done more than three times with similar results. Source data are provided as a Source data file. d Fluorescence polarisation measurements including dissociation constants (kD) calculations using recombinant GINS tetramer and fluorescently labelled TopBP1-GINI-core peptides (WT or Gpp (a)). For each peptide n = 3 independent experiments and data are presented as mean values +/−SEM. TEXT PRINTED IN THE PICTURE: (a) TopBP1-Gcc: GINS binding? (rec. proteins): no | (a) TopBP1-Gcore: GINS binding? […]

T1 sequence (Q14691 whole entry): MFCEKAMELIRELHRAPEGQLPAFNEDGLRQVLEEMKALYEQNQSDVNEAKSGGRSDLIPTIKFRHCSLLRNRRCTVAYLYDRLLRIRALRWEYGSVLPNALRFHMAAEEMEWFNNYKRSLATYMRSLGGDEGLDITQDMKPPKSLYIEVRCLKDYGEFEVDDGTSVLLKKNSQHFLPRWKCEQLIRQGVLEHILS
T1 sequence (Q9BRX5 whole entry): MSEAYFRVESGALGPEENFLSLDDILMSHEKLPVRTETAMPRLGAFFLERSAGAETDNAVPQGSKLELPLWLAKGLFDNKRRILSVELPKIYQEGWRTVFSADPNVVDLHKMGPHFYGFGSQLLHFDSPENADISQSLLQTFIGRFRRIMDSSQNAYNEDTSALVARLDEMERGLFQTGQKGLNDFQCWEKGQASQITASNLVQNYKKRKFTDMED
T1 sequence (Q9Y248 whole entry partner): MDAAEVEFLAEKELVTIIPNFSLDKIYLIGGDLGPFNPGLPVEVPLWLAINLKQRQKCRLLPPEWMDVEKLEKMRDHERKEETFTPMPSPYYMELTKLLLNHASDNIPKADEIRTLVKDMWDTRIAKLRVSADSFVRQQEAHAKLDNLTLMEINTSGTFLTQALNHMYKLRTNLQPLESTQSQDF
T1 sequence (Q9BRT9 whole entry partner): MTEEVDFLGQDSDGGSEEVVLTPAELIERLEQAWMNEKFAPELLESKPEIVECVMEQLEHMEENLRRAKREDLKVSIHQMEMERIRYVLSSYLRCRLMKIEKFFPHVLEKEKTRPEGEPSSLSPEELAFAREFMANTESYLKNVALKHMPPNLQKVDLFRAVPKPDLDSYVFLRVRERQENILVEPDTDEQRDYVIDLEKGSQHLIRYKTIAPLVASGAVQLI
Chain of GINS (6xHis-3xFlag-Sld5, Psf1, Psf2, Psf3) for pulldown experiments (Q9BRT9 whole entry, chain 1 of 4): as the sequence (Q9BRT9 whole entry partner) above
Chain of GINS (6xHis-3xFlag-Sld5, Psf1, Psf2, Psf3) for pulldown experiments (Q14691 whole entry, chain 2 of 4, further chain): as the sequence (Q14691 whole entry) above
Chain of GINS (6xHis-3xFlag-Sld5, Psf1, Psf2, Psf3) for pulldown experiments (Q9Y248 whole entry, chain 3 of 4, further chain): as the sequence (Q9Y248 whole entry partner) above
Chain of GINS (6xHis-3xFlag-Sld5, Psf1, Psf2, Psf3) for pulldown experiments (Q9BRX5 whole entry, chain 4 of 4, further chain): as the sequence (Q9BRX5 whole entry) above
T2 sequence (Q9BRT9 whole entry, chain 1 of 4): as the sequence (Q9BRT9 whole entry partner) above
T2 sequence (Q14691 whole entry, chain 2 of 4): as the sequence (Q14691 whole entry) above
T2 sequence (Q9Y248 whole entry, chain 3 of 4): as the sequence (Q9Y248 whole entry partner) above
T2 sequence (Q9BRX5 whole entry, chain 4 of 4): as the sequence (Q9BRX5 whole entry) above

Molecule: TopBP1-BRCT0-5-Gcc (from UniProt Q92547 1-766) (domain or fragment)
- reduction of nucleotide incorporation (α-32P-dCTP) in TopBP1-depleted Xenopus egg extract after add-back, 120 min time point [1]: 21%

Molecule: CC(C)C[C@H](NC(=O)[C@H](CC(=O)O)NC(=O)[C@H](CCC(=O)O)NC(=O)[C@H](CC(=O)O)NC(=O)[C@H](C)NC(=O)[C@H](CCC(N)=O)NC(=O)[C@H](CCC(=O)O)NC(=O)[C@H](Cc1c[nH]cn1)NC(=O)[C@H](CCCCN)NC(=O)[C@H](CCC(=O)O)NC(=O)[C@H](CO)NC(=O)[C@@H]1CCCN1C(=O)[C@H](C)NC(=O)CNC(=O)[C@H](Cc1ccc(O)cc1)NC(=O)CNC(=O)c1ccc2c(c1)C(=O)OC21c2ccc(O)cc2Oc2cc(O)ccc21)C(=O)N[C@@H](CC(C)C)C(=O)N[C@@H](CO)C(=O)N[C@@H](CCC(N)=O)C(=O)N[C@@H](Cc1ccc(O)cc1)C(=O)N[C@@H](CCC(=O)O)C(=O)N[C@@H](CC(N)=O)C(=O)NCC(=O)O [TOPBP1(478-497)] (5FAM-GYGAPSEKHEQADEDLLSQYENG-OH)
- Kd (GINS tetramer; fluorescein-labelled peptide 100 nM, increasing GINS, 25 mM HEPES pH 7.5, 150 mM NaCl, 1 mM EDTA, 0.25 mM TCEP, 0.02% Tween 20, n = 3 independent experiments, interval printed in figure (7.037 - 8.809), read-out: dissociation constant Kd (fluorescence polarisation)): 7.88 µM

Molecule: Flu-GYGAPSEKHEQADEDPPSQYENG [TOPBP1(478-497) L490P L491P, fluorescein-labelled GINI-core peptide with LL to PP mutation]
- binding to GINS by fluorescence polarisation (GINS tetramer; peptide 100 nM, 150 mM NaCl, n = 3): failed to bind

B1: fluorescently labelled GINI-core peptide (Ala478-Gly497), WT (peptide)
peptide: Flu-GYGAPSEKHEQADEDLLSQYENG
modifications: not fully specified; printed as Flu-GYGAPSEKHEQADEDLLSQYENG
notes: three residues printed before the TopBP1 stretch Ala478-Gly497; human TopBP1 GINI core, Ala478-Gly497; also called TopBP1-GINI-core peptide WT; source: synthetic peptide (Peptide Protein Research Ltd)
- Kd [2]: ~8 µM

B2: TopBP1-ΔBRCT0/1/2: TopBP1-BRCT0-5 with BRCT0-2 module removed (protein)
chain: NSLNSKLEPTLENLENLDVSAFQAPEDLLDGCRIYLCGFSGRKLDKLRRLINSGGGVRFNQLNEDVTHVIVGDYDDELKQFWNKSAHRPHVVGAKWLLECFSKGYMLSEEPYIHANYQPVEIPVSHKPESKAALLKKKNSSFSKKDFAPSEKHEQADEDLLSQYENGSSTVVEAKTSEARPFNDSTHAEPLNDSTHISLQEENQSSVSHCVPDVSTITEEGLFSQKSFLVLGFSNENESNIANIIKENAGKIMSLLSRTVADYAVVPLLGCEVEATVGEVVTNTWLVTCIDYQTLFDPKSNPLFTPVPVMTGMTPLEDCVISFSQCAGAEKESLTFLANLLGASVQEYFVRKSNAKKGMFASTHLILKERGGSKYEAAKKWNLPAVTIAWLLETARTGKRADESHFLIENSTKEERSLETEITNGINLNSDTAEHP
modifications: left off: His, N-terminal, state not stated | Strep, C-terminal, state not stated
notes: TopBP1-BRCT0-5 with BRCT0-2 module removed
- co-elution with GINS from size exclusion column (GINS complex): did not affect binding
- GINS binding? (rec. proteins) (GINS): yes
